Literature values, collected in publication PMC11187271.

Biological target: Galectin-1 (Homo sapiens) (UniProt P09382)
Chain of UniProt P09382 (P09382 2-135): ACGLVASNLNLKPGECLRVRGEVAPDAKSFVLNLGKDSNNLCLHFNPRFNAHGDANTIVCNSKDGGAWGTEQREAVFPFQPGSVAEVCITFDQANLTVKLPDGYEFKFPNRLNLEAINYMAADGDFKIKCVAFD

For Thymosin alpha-1 (from UniProt P06454), the Kd is listed as 46 µM.
